# From a protein production outcome set (Wang et al. 2014)
# Assay: label from the status in PepcDB records
row,Sequence,protein production
1,MNAIGLVGFAFVGAAKAIEERYDVFGVTVVGVMTALGGGTTRDLLLNRVPNSLQSPGEVALSLLGVTAAVLFVHFLDDGHQHPVVLTADAIGLAAFTTTGALLGQQAGLPVFAVVALATVNAAGGGAISDLLLGRTPFILREDFYASCAVIGGLAFWALAQIGVSVSVASAGCALAVLLARGLGIGRGWSLPTVQAWERRDAQ,failed
2,MNAIREGVRALCAEFDAAYWRRIDEQRGFPEAFVKALTDAGWLSAMIPEEYGGSGLGLAEASVILEEVNRCGGNSGTVHGQMYNMFTLLRNGSEAQKRFYLPKLASGELRLQSMGVTEPTTGTDTTKIKTTAVRKGDRYVINGQKVWISRIQHSDLMILLARTTPLAEVKRKSEGMSIFLVDLREAIGKGLTVQPIANMVNHETNELFFDNLEIPADSLIGEEGKGFRYILDGLNAERTLIAAECIGDGRWFIDKASHYARDRVVFGRPIGQNQGVQFPIAEAHIEVEAADLMRWRACQEYDAGLNAGASANMAKYLAAKASWEAANACLQTHGGFGFACEYDVERKFRETRLYQVAPISTNLILSYVAEHLLELPRSF,failed
3,MNALGTKARVVGTGVLVLGLLSGCTTAAPSPSSPTPTQATPTQAASSNAGPGPASSAAVPAQQSAEAKLSPEAQIETDRLLILAAKANDAAKVRELIAAGGNVNAKDEIQDSAFLYAGAEGFNEVLQLTLAAGADVRSTNRYGGTALIPASEHGHTETVRILIAAGVPVDHVNNLGWTAMQEAILPNNGGPNQQDVVRQLLAAGATPDIRDPQGRTALQNAERLGFTEIAALIRNR,failed
4,MNALVLYFDGKCPFCAAEMRRLSEWDTQHQLAFVDIAQEGFDCSSLNVDLAALNRELHGRTSDGRLLVGIDCMIAAYTLAGHGWLVLPLRVPGLRRVLANLYRAFAGNRYTLSRWLGYGTATACDGDSCGTGNPFLSGKELTDAAEDRPARRDSRQLAVRWMYAAAIAHLLVGAAMPWAADATLFGTYHRIVEQSFWSGAAPAQARAQQVWWIALFGATLQCSAIWMLALVHLGNRTRHRMAWGWLLVGLLVWAPQDLLISLQAHVWPHVLVDAVALLTMIPPLLYLWRKDAA,failed
5,MNANQFLKAVSQLQGWRECAFLLALAERSFPNYALFADAVGLKTGGKMRQLLDLAWDMLQKDVADAAIPQLLSKLETLCPNVDEYDAYGVYPAFDFCQLLEQALLNRLNPNKHRATEASQLATRTVMDFVEMSEGEGMDENELVRVFEHHPLLKDDKLFQRDTVMALYYYRTPKEAFLAELRAGAANDGVSNLGISLEG,not failed
6,MNAPSLKEENALTITRVFDAPANLVFKVWTTPEHLARWWGPKGFTVPAITTDFREGGAWRGCIRSPEGQDYWAHGIYREIVAPSRIVLSFVWEEEGAIDTLITVTLEDVAGGTRLTFHQAPFTSAESRDSHAEGWSECMDRLVSYVAARKEEVQ,failed
7,MNARHARYPFLGDARDAVEEAGVDLARVVTEDDAVVERARERVVSALTDGTIGEPAATVSTRVEVLSYPVARVLVSIVDESVLVRKYATAEADAAYDRFTADESTDTDLKSVSDTTRVSRDTLLSEFDLRAHVHATPDAHTVDVPTYLLLASSLRDDDWRLVNRALDDGRVPVTDAELDTLIREAIRERVADGLPLSVPDQIADALDEPVAAIQDALADLDLTREIDTVVPELFPPCMKHLLDQVQRGDHLPHHARFAITSFLSNVGLSTDEIVDIYEVNPGFGEEMTRYQTDHIQGDSSPTEYTAPSCATMKAYGNCVNPDDLCDAINHPLSYYEVKLDDGDDDDLADWRDREDDDSPD,failed
8,MNARSGDNVVLAILLSLLALVLFDMMGLIIKYLSPRYGAAELSAYRNFFGVFPSVIALWSSPGWHRAGRPWRIRQWRLGLMRGVYVTFAQFLFYYSLGKLAFATASTITYANAVFMTALAVPLLGERVGLMRWAAVLLGFAGVLLVMKPGSDSFTPDALAPLGAAFLYALTGVSARQMDSAVPSALINLYSVVAALVGALALALLSGGFTPLAQWSDLGWIAAMGGFGGTAVLCLVASYRMTEQSNLAPFSYFGIPIAFVAGWLVFDETPWADLFPGAFFIAGGGLMIVWRERIRSRAGRRISN,failed
9,MNASTSPLPASDQTLRGILLICAAVFLFASHDGLSKFLSGFYPIVMVVWARYLVHTLLMVAVFVPRNGLAVIRSRRPLMQLARALCLIGTSLFFTTGLRYLPLAEATAVNFLAPLLVTALSVPLLKEKVSLGQWLAVLTGFIGVLFIVRPGGALFTPAALFPLGSALCFGLYQLLTRMLANSDSPTTSNFLAGIFNTLIMSLLVPFFWQTPSLLHGLMMIALGGCGMGGHLLLTQAFRHAPPATLAPFSYGQIIFAGLLGLLVFGHVPDAWALLGILVICASGLVVAWRRGR,failed
10,MNATHDLQSTPSRLRRFACMMYEGVLLFGVVFIASYLFDTLTQSKHGLMLRDGRQVWLFLVIGLYFVLCWRRRGQTLPMKTWNIRLVDRDGQPPSTPRLVLRYVLAWPLPLGAAALVWLASSLTGWRSVDMFIVLAPFAIFAWSWVDPDGQFLHDRLLGTRLRNAPPRAARAVAGT,failed
11,MNATLIDCCDPQKPSRVLFHFLILDAPSPSNLPTYIKELQHRGVRHLVRVCGPTYDATLVKSRGIDVHSWPFDDGAPPTRAVLDSWLKLLDTELARQQEDPSVPPPTIGVHCVAGLGRAPILVALALVEYGNVSALDAIALIREKRKGAINQTQMHWITKYKR,not failed
12,MNATSTAPSSRHTLRSLAGDVFELLGSMRFAVSLLMFICIASIVGTVLAQNRPSNVYVDQFGPFWFEVFDKFSIWHVYNSWWFLLIMTFLVVSTSVCLIRNTPKMLREARSFREHVRASSLRAFPHRLQTEVAQPVSETAQGVTGLLGQFGYAVRERRDGDGIMLAAKKGSANRLGYIFAHSAMVIICIGGLLDSEAPVRLQVLFDGKQPIAINGEMARADIPDSALLSVNNPSYRANLWVPEGSNASLATIAVNDRSLVQPLPFSLRLKKFTVDYYSTGMPSRFLSLVEVTDPETGEMFDQTIEVNEPLRYKGVTVYQSSFDDGGSSVSLTGYPLVGAGDTPFKVDGVVGQTSEIGARIGDQPKSMKIEFTALRVINVEDFSGGQPGAQNLSLREHVASVAGSAAGKKNENLRNVGPRIDYKLIDDAGQAHEFQNYMLPVVLDGVPVFLSAVRNNPADDFQYLRIPADDQGSLAEFMRLRAALADPAARQEAARRFAERNAPSGTDRQPLETAAQRALATFAEGGLQAIADFLQANTAPDDLERAAGIVVRLVGASVAELRDIARARAGLPALPQSGPQADEAAQWSRVAVAALSDLAFYPAPVMFSLTDFQERQGSVFQVARTPGKNAVYLGCVLLILGIFAMFYIRDRRVWVWVKPAADGAGSSIEAAMTSQKRTLDFNQEFDRLREALLRQSKP,failed
13,MNDDKDVVIDQIYYISTDPSATTYPTTFSVSLVDNSVAGRPFFYVVGKSTMRVDRNTTLRVEEDSKLVEKYNETYGKKYLPFPEGTYSFSTNEVTINQGDNFSSDTIFISFSNWDKLSKIDKYLLPVSLKAVDDKGAVSMDRNLIYFIADFSTTNTGYNKPAAWKPLDRTDWDVSFSYAYGYDEAQFGGRLAVDGDVSTTWFTWGVVSAGECWWATTLPAPTHLTGFSLTRQTTFGSSYNVREAKVKVKKEGDTEWTEAGLFRFGSFKGNDPQYAVFIPAVENVKEFRIDIVSPADFTGFAELDLYQLEHHHHHH,failed
14,MNDGDGTPAAAARERRFGPLGTALVIIPTYNEAENIKAIVTRVREAVPEAHVLVADDNSPDGTGKLADELAAADDHVQVMHRKGKEGLGAAYLAGFRWGLEHGYGVLIEMDADGSHQPEELPRLLTALKGADLVLGSRWVPGGRVVNWPKSREIISRGGSMYSRIALDLPLRDITGGYRAFRRETLEGLGLEEVASQGYCFQVDLARRAIKAGYHVVEVPITFVERELGDSKMSRDILVEALWRVTTWGVGERVGKVLGRDRRSGTAADGQTASSGTDGRTASSDRSTDSLDESAKASDAKA,failed
15,MNDIQQALQEALTHHQAGRLGEAKTLYDAILHAQPGQPDAMHFLGLLACQLKQYDAGLALMERSLAERPDASYFNNLGNMLRECGRLDDAIAHYRRAVALRPDYPEAHNNLGNALRDARDPAEAMRSCSRAIELRPGYAEAYNNLGNVLQDLGELDAAAASYGKAIAFHPAYAEAHSNLGNVLRAQERHADAIVHYRRAIELNPALRVAHRGLAIALRATDDFDGALEHARAGLEPDDAEGHCMLGRSLRSMNDFDGAARLFERACEIDPGYAPAWCRLGELRCQQGEYEESLRLCRHAIELDPELADAYNFLGLAYHNLDRMAASELSHRHAIDLNPDDADAHHNLAAALFRLDKLDEAMSEYRIAQELGVDPVKIQLTLGDILWAKRDFSGAVAAFREAVEHDPHRAYARLLFNMSSSPAFAPEEWVVDAQRYGDYLARDARLLSHDREQRARQARGRPLRVGFVSGDLRQHPVGIFLESVLAHLDRTRIEPHAYVTFVVEDDVTARLKTGFASWKKLTCLNRDQAARMIHDDGIDVLVDLAGHTNWSGLPVFAHRPAPVQASWLGFFATTGCRAIDYFIGDPHTLPADEAHHFVEQPWHLPDSYLCFTPPAYDVAVGPLPMATNGGVTFGCFGKLTKISDDVIALWSRLLHALPDARLMLKAHELGASDLNRATLERFARHGIGAHQLILEGGSPRAEYFNAYNRIDIALSPFPYPGGTTTAEALWMGVPVIGMKGGRFVTHICESLLHAAGMGDWIAADEDAYLAKAIAFAGDRDALAALRATLRERTLASPLCDAARFARNLEDAFHGMWARYVAGDTDGART,failed
16,MNDISVSADRHAIERGSFNGNAKEYFGIWIVNILLTIMTLGIYSAWAKVRRKRYFNGNTLLAGRAFGYHATGGQIFKGRLIAFAFIVFSQLVGLIHPFLVFAPTILLLIFLPWVITRSIRFNARVTSYRNVRFDFVGTAWGAFVSILLGSFVALLSIGILAPLASRWANRYIVSNLHYGDRRFSTDPKIGALYRAWIIPALLVVVGGVLAVFLLIFLAMVLVQAAGIGSRELATAPENYEIVTLFGLGQILINLLVAMLIYGFASTVYKAGVRNVVVSSTLLDGKHELHSDLHRGRYLWIVFSNLIVTIFTFGLMRPWAAVREAQYAVERMGISFKGDMGEVLSSMEATGAAVSAEYMDMEGFEFGF,not failed
17,MNDQVLRTQTDRRQLQQIIAGLTEGVILIEPDQRILWANEAALAMHGVDSLEGLGADTGEYRERFRLRYRNNHPLQEGQYPAERLVAGECFSDVVVEVFPAADEDTRWVHRVRGLVLTTPEDKPDCLVLILHDAT,not failed
18,MNDRPNNYILTRESGFKVITELTKGQNCNGAETHPINGELYFNSWNAGQVFRYDFTTQETTPLFTIQDSGWEFHIQFHPSGNYAYIVVVNQHYILRSDYDWKTKRLTTPYIVCGQQGAKDWVDGVGKKARMHAPRQGTFVKNPAYKGSSDEYDFYFCDRENHCIRILTPQGRVTTFAGRGSNGTSGYNDGDLRQEARFNHPEGIVYDEERECFFIGDRENRRIRKIGLEHHHHHH,not failed
19,MNDTYQPINCDDYDNLELACQHHLMLTLELKDGEKLQAKASDLVSRKNVEYLVVEAAGETRELRLDKITSFSHPEIGTVVVSES,not failed
20,MNEKVYYFIKSYDDSLPMPPAESFGQILNETYLHPFDWSARTTRKSYWWSVLINFILSILCIVLGFYAFNKNINPGIRVIDAVVAIVVYLWVFLAGLGQMVRRLHDVGYSGYWYWSTFTGYGTMFLFYLALQPSAQRKVKWGKYLFSDQDYPEGKKEKVPVPTIGQILKEHFFDCFNWDARSTRTSFWVGTAINQVVMVIGVLACYLIAFLLFLPFRVTGLNSDDSKVIAVFFIIFLIFFAAVTIWAFLAQLGHTVRRLHDAGFNGGWWWLSVIPYVGQLLLAFLLFHPTVKNEVKWNKYLFDPEDRIR,failed
